# According to patent US20260001928A1 (CORTERIA PHARMACEUTICALS, priority 2022, published 2026):
# *1 amine or outer side, *2 acyl side, *3 side chain or, on linkers, in order; H or OH if unused. Where no end group is shown, it is not given here. Side-chain parts run from the residue outwards. [ ]: non-standard residue; d: D form. The star is where a group is joined. C18 diacid = O=C(O)CCCCCCCCCCCCCCCCC(=O)*; C16 diacid = O=C(O)CCCCCCCCCCCCCCC(=O)*; γGlu = O=C(O)[C@H](CCC(=O)[*:2])N[*:1]; NMeI = CC[C@H](C)[C@H](NC)C(=O)O; Ac6c = NC1(C(=O)O)CCCCC1; Ac5c = NC1(C(=O)O)CCCC1; Ac3c = NC1(C(=O)O)CC1; Aib = CC(C)(N)C(=O)O
# T1: CRF1R receptor (UniProt P34998 24-415, limits assumed)
# T1 sequence (looked up): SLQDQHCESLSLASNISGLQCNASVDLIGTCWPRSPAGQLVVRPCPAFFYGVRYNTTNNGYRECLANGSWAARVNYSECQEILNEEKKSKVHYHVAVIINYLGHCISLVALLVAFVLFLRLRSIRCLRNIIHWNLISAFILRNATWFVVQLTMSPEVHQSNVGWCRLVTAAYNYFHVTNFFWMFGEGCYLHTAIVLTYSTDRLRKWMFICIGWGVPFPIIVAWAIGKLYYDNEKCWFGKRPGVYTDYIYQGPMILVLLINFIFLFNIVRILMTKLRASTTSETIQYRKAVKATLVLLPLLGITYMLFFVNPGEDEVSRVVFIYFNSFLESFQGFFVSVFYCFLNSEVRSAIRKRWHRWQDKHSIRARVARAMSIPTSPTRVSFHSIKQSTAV
# B1: SEQ ID NO 61 (peptide)
# peptide: Ac-IVLSLD[dV]PIKLK([γGlu-C16 diacid])KILLEQEKQKKQREQAETN[Ac3c]QILAQV-NH2
# SMILES: CC[C@H](C)[C@H](NC(C)=O)C(=O)N[C@H](C(=O)N[C@@H](CC(C)C)C(=O)N[C@@H](CO)C(=O)N[C@@H](CC(C)C)C(=O)N[C@@H](CC(=O)O)C(=O)N[C@@H](C(=O)N1CCC[C@H]1C(=O)N[C@H](C(=O)N[C@@H](CCCCN)C(=O)N[C@@H](CC(C)C)C(=O)N[C@@H](CCCCNC(=O)CC[C@H](NC(=O)CCCCCCCCCCCCCCC(=O)O)C(=O)O)C(=O)N[C@@H](CCCCN)C(=O)N[C@H](C(=O)N[C@@H](CC(C)C)C(=O)N[C@@H](CC(C)C)C(=O)N[C@@H](CCC(=O)O)C(=O)N[C@@H](CCC(N)=O)C(=O)N[C@@H](CCC(=O)O)C(=O)N[C@@H](CCCCN)C(=O)N[C@@H](CCC(N)=O)C(=O)N[C@@H](CCCCN)C(=O)N[C@@H](CCCCN)C(=O)N[C@@H](CCC(N)=O)C(=O)N[C@@H](CCCNC(=N)N)C(=O)N[C@@H](CCC(=O)O)C(=O)N[C@@H](CCC(N)=O)C(=O)N[C@@H](C)C(=O)N[C@@H](CCC(=O)O)C(=O)N[C@H](C(=O)N[C@@H](CC(N)=O)C(=O)NC1(C(=O)N[C@@H](CCC(N)=O)C(=O)N[C@H](C(=O)N[C@@H](CC(C)C)C(=O)N[C@@H](C)C(=O)N[C@@H](CCC(N)=O)C(=O)N[C@H](C(N)=O)C(C)C)[C@@H](C)CC)CC1)[C@@H](C)O)[C@@H](C)CC)[C@@H](C)CC)C(C)C)C(C)C
# B2: SEQ ID NO 60 (peptide)
# peptide: Ac-IVLSLD[dV]PIKLK([γGlu-C16 diacid])KILLEQEKQKKQREQAETN[Ac5c]QILAQV-NH2
# SMILES: CC[C@H](C)[C@H](NC(C)=O)C(=O)N[C@H](C(=O)N[C@@H](CC(C)C)C(=O)N[C@@H](CO)C(=O)N[C@@H](CC(C)C)C(=O)N[C@@H](CC(=O)O)C(=O)N[C@@H](C(=O)N1CCC[C@H]1C(=O)N[C@H](C(=O)N[C@@H](CCCCN)C(=O)N[C@@H](CC(C)C)C(=O)N[C@@H](CCCCNC(=O)CC[C@H](NC(=O)CCCCCCCCCCCCCCC(=O)O)C(=O)O)C(=O)N[C@@H](CCCCN)C(=O)N[C@H](C(=O)N[C@@H](CC(C)C)C(=O)N[C@@H](CC(C)C)C(=O)N[C@@H](CCC(=O)O)C(=O)N[C@@H](CCC(N)=O)C(=O)N[C@@H](CCC(=O)O)C(=O)N[C@@H](CCCCN)C(=O)N[C@@H](CCC(N)=O)C(=O)N[C@@H](CCCCN)C(=O)N[C@@H](CCCCN)C(=O)N[C@@H](CCC(N)=O)C(=O)N[C@@H](CCCNC(=N)N)C(=O)N[C@@H](CCC(=O)O)C(=O)N[C@@H](CCC(N)=O)C(=O)N[C@@H](C)C(=O)N[C@@H](CCC(=O)O)C(=O)N[C@H](C(=O)N[C@@H](CC(N)=O)C(=O)NC1(C(=O)N[C@@H](CCC(N)=O)C(=O)N[C@H](C(=O)N[C@@H](CC(C)C)C(=O)N[C@@H](C)C(=O)N[C@@H](CCC(N)=O)C(=O)N[C@H](C(N)=O)C(C)C)[C@@H](C)CC)CCCC1)[C@@H](C)O)[C@@H](C)CC)[C@@H](C)CC)C(C)C)C(C)C
# B3: SEQ ID NO 134 (peptide)
# peptide: Ac-IVLSLD[dV]PIKLK([γGlu-C18 diacid])KILLEQEKQKKQREQAETN[Ac6c]QILAQV-NH2
# SMILES: CC[C@H](C)[C@H](NC(C)=O)C(=O)N[C@H](C(=O)N[C@@H](CC(C)C)C(=O)N[C@@H](CO)C(=O)N[C@@H](CC(C)C)C(=O)N[C@@H](CC(=O)O)C(=O)N[C@@H](C(=O)N1CCC[C@H]1C(=O)N[C@H](C(=O)N[C@@H](CCCCN)C(=O)N[C@@H](CC(C)C)C(=O)N[C@@H](CCCCNC(=O)CC[C@H](NC(=O)CCCCCCCCCCCCCCCCC(=O)O)C(=O)O)C(=O)N[C@@H](CCCCN)C(=O)N[C@H](C(=O)N[C@@H](CC(C)C)C(=O)N[C@@H](CC(C)C)C(=O)N[C@@H](CCC(=O)O)C(=O)N[C@@H](CCC(N)=O)C(=O)N[C@@H](CCC(=O)O)C(=O)N[C@@H](CCCCN)C(=O)N[C@@H](CCC(N)=O)C(=O)N[C@@H](CCCCN)C(=O)N[C@@H](CCCCN)C(=O)N[C@@H](CCC(N)=O)C(=O)N[C@@H](CCCNC(=N)N)C(=O)N[C@@H](CCC(=O)O)C(=O)N[C@@H](CCC(N)=O)C(=O)N[C@@H](C)C(=O)N[C@@H](CCC(=O)O)C(=O)N[C@H](C(=O)N[C@@H](CC(N)=O)C(=O)NC1(C(=O)N[C@@H](CCC(N)=O)C(=O)N[C@H](C(=O)N[C@@H](CC(C)C)C(=O)N[C@@H](C)C(=O)N[C@@H](CCC(N)=O)C(=O)N[C@H](C(N)=O)C(C)C)[C@@H](C)CC)CCCCC1)[C@@H](C)O)[C@@H](C)CC)[C@@H](C)CC)C(C)C)C(C)C
# B4: SEQ ID NO 135 (peptide)
# peptide: Ac-IVLSLD[dV]PIKLK([γGlu-C18 diacid])KILLEQEKQKKQREQAETN[Ac5c]QILAQV-NH2
# SMILES: CC[C@H](C)[C@H](NC(C)=O)C(=O)N[C@H](C(=O)N[C@@H](CC(C)C)C(=O)N[C@@H](CO)C(=O)N[C@@H](CC(C)C)C(=O)N[C@@H](CC(=O)O)C(=O)N[C@@H](C(=O)N1CCC[C@H]1C(=O)N[C@H](C(=O)N[C@@H](CCCCN)C(=O)N[C@@H](CC(C)C)C(=O)N[C@@H](CCCCNC(=O)CC[C@H](NC(=O)CCCCCCCCCCCCCCCCC(=O)O)C(=O)O)C(=O)N[C@@H](CCCCN)C(=O)N[C@H](C(=O)N[C@@H](CC(C)C)C(=O)N[C@@H](CC(C)C)C(=O)N[C@@H](CCC(=O)O)C(=O)N[C@@H](CCC(N)=O)C(=O)N[C@@H](CCC(=O)O)C(=O)N[C@@H](CCCCN)C(=O)N[C@@H](CCC(N)=O)C(=O)N[C@@H](CCCCN)C(=O)N[C@@H](CCCCN)C(=O)N[C@@H](CCC(N)=O)C(=O)N[C@@H](CCCNC(=N)N)C(=O)N[C@@H](CCC(=O)O)C(=O)N[C@@H](CCC(N)=O)C(=O)N[C@@H](C)C(=O)N[C@@H](CCC(=O)O)C(=O)N[C@H](C(=O)N[C@@H](CC(N)=O)C(=O)NC1(C(=O)N[C@@H](CCC(N)=O)C(=O)N[C@H](C(=O)N[C@@H](CC(C)C)C(=O)N[C@@H](C)C(=O)N[C@@H](CCC(N)=O)C(=O)N[C@H](C(N)=O)C(C)C)[C@@H](C)CC)CCCC1)[C@@H](C)O)[C@@H](C)CC)[C@@H](C)CC)C(C)C)C(C)C
# B5: SEQ ID NO 74 (peptide)
# peptide: [NMeI]VLSLD[dV]PIKLK([γGlu-C16 diacid])KILLEQEKQKAQREQAETN[Aib]QILAQV-NH2
# modifications: N-terminus assumed
# SMILES: CC[C@H](C)[C@H](NC)C(=O)N[C@H](C(=O)N[C@@H](CC(C)C)C(=O)N[C@@H](CO)C(=O)N[C@@H](CC(C)C)C(=O)N[C@@H](CC(=O)O)C(=O)N[C@@H](C(=O)N1CCC[C@H]1C(=O)N[C@H](C(=O)N[C@@H](CCCCN)C(=O)N[C@@H](CC(C)C)C(=O)N[C@@H](CCCCNC(=O)CC[C@H](NC(=O)CCCCCCCCCCCCCCC(=O)O)C(=O)O)C(=O)N[C@@H](CCCCN)C(=O)N[C@H](C(=O)N[C@@H](CC(C)C)C(=O)N[C@@H](CC(C)C)C(=O)N[C@@H](CCC(=O)O)C(=O)N[C@@H](CCC(N)=O)C(=O)N[C@@H](CCC(=O)O)C(=O)N[C@@H](CCCCN)C(=O)N[C@@H](CCC(N)=O)C(=O)N[C@@H](CCCCN)C(=O)N[C@@H](C)C(=O)N[C@@H](CCC(N)=O)C(=O)N[C@@H](CCCNC(=N)N)C(=O)N[C@@H](CCC(=O)O)C(=O)N[C@@H](CCC(N)=O)C(=O)N[C@@H](C)C(=O)N[C@@H](CCC(=O)O)C(=O)N[C@H](C(=O)N[C@@H](CC(N)=O)C(=O)NC(C)(C)C(=O)N[C@@H](CCC(N)=O)C(=O)N[C@H](C(=O)N[C@@H](CC(C)C)C(=O)N[C@@H](C)C(=O)N[C@@H](CCC(N)=O)C(=O)N[C@H](C(N)=O)C(C)C)[C@@H](C)CC)[C@@H](C)O)[C@@H](C)CC)[C@@H](C)CC)C(C)C)C(C)C
# B6: SEQ ID NO 136 (peptide)
# peptide: Ac-IVLSLD[dV]PIKLK([γGlu-C18 diacid])KILLEQEKQKKQREQAETN[Ac3c]QILAQV-NH2
# SMILES: CC[C@H](C)[C@H](NC(C)=O)C(=O)N[C@H](C(=O)N[C@@H](CC(C)C)C(=O)N[C@@H](CO)C(=O)N[C@@H](CC(C)C)C(=O)N[C@@H](CC(=O)O)C(=O)N[C@@H](C(=O)N1CCC[C@H]1C(=O)N[C@H](C(=O)N[C@@H](CCCCN)C(=O)N[C@@H](CC(C)C)C(=O)N[C@@H](CCCCNC(=O)CC[C@H](NC(=O)CCCCCCCCCCCCCCCCC(=O)O)C(=O)O)C(=O)N[C@@H](CCCCN)C(=O)N[C@H](C(=O)N[C@@H](CC(C)C)C(=O)N[C@@H](CC(C)C)C(=O)N[C@@H](CCC(=O)O)C(=O)N[C@@H](CCC(N)=O)C(=O)N[C@@H](CCC(=O)O)C(=O)N[C@@H](CCCCN)C(=O)N[C@@H](CCC(N)=O)C(=O)N[C@@H](CCCCN)C(=O)N[C@@H](CCCCN)C(=O)N[C@@H](CCC(N)=O)C(=O)N[C@@H](CCCNC(=N)N)C(=O)N[C@@H](CCC(=O)O)C(=O)N[C@@H](CCC(N)=O)C(=O)N[C@@H](C)C(=O)N[C@@H](CCC(=O)O)C(=O)N[C@H](C(=O)N[C@@H](CC(N)=O)C(=O)NC1(C(=O)N[C@@H](CCC(N)=O)C(=O)N[C@H](C(=O)N[C@@H](CC(C)C)C(=O)N[C@@H](C)C(=O)N[C@@H](CCC(N)=O)C(=O)N[C@H](C(N)=O)C(C)C)[C@@H](C)CC)CC1)[C@@H](C)O)[C@@H](C)CC)[C@@H](C)CC)C(C)C)C(C)C
# Molecular target: T1, CRF1R receptor
# Experiment: cell-based or functional assay
row,Emax (% I),Binder
1,3%,B1
2,5%,B2
3,10%,B3
4,15%,B4
5,7%,B5
6,5%,B6

# Molecular target: human corticotropin-releasing factor 2a (CRF2a receptor) (human), Q13324
# Sequence (Q13324 20-411): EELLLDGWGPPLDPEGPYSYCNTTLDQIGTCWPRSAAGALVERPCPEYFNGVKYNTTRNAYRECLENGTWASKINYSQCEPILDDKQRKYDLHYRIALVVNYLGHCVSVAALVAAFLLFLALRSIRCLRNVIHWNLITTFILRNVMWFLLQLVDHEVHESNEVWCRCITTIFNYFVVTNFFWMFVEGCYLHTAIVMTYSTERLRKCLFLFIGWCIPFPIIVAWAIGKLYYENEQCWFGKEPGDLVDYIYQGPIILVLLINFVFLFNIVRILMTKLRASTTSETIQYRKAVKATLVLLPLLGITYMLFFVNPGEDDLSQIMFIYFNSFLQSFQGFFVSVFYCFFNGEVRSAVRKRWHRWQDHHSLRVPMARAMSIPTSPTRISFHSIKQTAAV
# Experiment: cell-based or functional assay
row,EC50 [nM] (cAMP),Binder
1,0.36 nM,B1
2,0.34 nM,B2
3,0.5 nM,B3
4,0.19 nM,B4
5,0.15 nM,B5
6,0.16 nM,B6
